Patent US20050171004A1, “Use of cardiotrophin-1 to promote wound healing and counteract overt fibrosis” (priority 2003, published 2005)

Key:
Assay type in all cases: cell-based, rat
cardiac fibroblasts [1] = experiment: Western analysis of myosin light chain phosphorylation; settings: CT-1 10 ng/mL
Procedure: (§1) Protein concentrations of tissue and cell lysates were determined by the BCA method (Smith et al., 1985, Anal Biochem 150: 76-85). Proteins were separated by 8-12% SDS-PAGE and transferred to PVDF membrane (Roche, Indianapolis, Ind.) for 1 hour at 300 mA for small proteins or for 2 hours at 500 mA for proteins greater than 100 kDa. Membranes were blocked with 5% non-fat skim milk in tris-buffered saline containing 0.2% Tween 20 (TBST). Proteins were visualized with ECL Plus (Amersham) after probing with primary and secondary antibodies. Band intensity was quantified using a CCD camera imaging densitometer (GS670, Bio-Rad Laboratories (Canada) Ltd. Mississauga, Ontario).
The infarct zone is repopulated by interstitial fibroblasts that infiltrate the scar after MI. […] Similar results were obtained when using the Costar Transwell® system (data not shown). To determine how the chemotactic response is transduced, we used specific inhibitors of intracellular signaling pathways. […] This effect could be blunted by co-incubation with AG490 (FIG. 22). […] Since activation of myosin motors is required for effective cell migration, and CT-1 induced migration could be inhibited by co-incubation with a myosin light chain kinase inhibitor, we sought to determine the effect of CT-1 on the phosphorylation status of myosin light chain. Myosin light chain regulates the ATPase activity of myosin heavy chain, and thus overall contractile activity. […] Myosin light chain phosphorylation could be prevented by co-incubation with ML-7 or W7 but not AG490 or PP2 (FIG. 25b).

cardiac fibroblasts [2] = experiment: Protein synthesis assay (3H-leucine incorporation); settings: CT-1 for 24 hours
Procedure: Protein synthesis was determined using the methods of Wolf and Neilson (Wolf and Neilson, 1990, Am J Physiol 259: 768-777). 2.5×10^4 cells (counted with a hemacytometer) were loaded into each well of 24-well plates, allowed to attach overnight, then rendered quiescent in serum free DMEM/F12 for 24 hours. Cells were stimulated with CT-1 for an additional 24 hours in the presence of 2 μCi/mL ^3H-leucine with or without inhibitors of signaling pathways. The culture media was aspirated, cells rinsed twice with phosphate buffered saline and proteins precipitated by two incubations with 10% TCA at room temperature. The precipitated protein was solubilized in 300 μl lysis buffer containing 0.5 M NaOH and 1% Triton X-100 at room temperature for 15 minutes. The lysate was transferred to scintillation vials, and beta emission was determined with 3 ml Ecolume scintillation fluid (ICN Pharmaceuticals) and a scintillation counter (LS6500, Beckman Coulter, Fullerton, Calif.).

cardiac myofibroblasts = experiment: Estimation of membrane potential with DiBAC4(3) dye; settings: superfusion with CT-1 for 4 minutes
Procedure: Myofibroblast membrane potential was estimated using voltage sensitive DiBAC4(3) dye (Molecular Probes, Eugene, Oreg.). […] First passage myofibroblasts were plated on glass coverslips, allowed to attach, then incubated with 1 μM DiBAC4(3) in control solution containing: NaCl (140 mM), KCl (5 mM), HEPES (10 mM), CaCl2 (2.0 mM), MgCl2 (1.4 mM) and glucose (10 mM) for 20 minutes. The cells were visualized at 400× on an inverted microscope (Nikon Canada). DiBAC4 (3) was excited at 470 nm wavelength and emitted light at 525 nm was digitized and stored (Photon Technology International, Lawrenceville, N.J.). Fluorescence intensity was normalized to maximum fluorescence observed throughout the experiment. To ensure fluorescence intensity changes in response to altered membrane potential were occurring as expected, the cells were superfused with Tyrode's solution containing 1 μM DiBAC4(3) and 1.5 mM KCl or 15 mM KCl. Under these control conditions, DiBAC4(3) fluorescence decreased or increased indicating hyperpolarization or depolarization, respectively. For CT-1 experiments, CT-1 was diluted in control solution containing 1 μM DiBAC4(3). After ensuring a stable fluorescence signal, the cells were superfused with the CT-1 containing solution for 4 minutes, followed by washout. Fluorescence was monitored for a total of 10 minutes.

cardiac fibroblasts [3] = experiment: Western analysis of phosphorylation of translational regulatory proteins; settings: stimulation with CT-1
Procedure: as §1
To determine the effect of CT-1 on protein synthesis in cardiac fibroblasts we measured incorporation of ^3H-labeled leucine. […] Since the activity of translational regulatory proteins is modified by phosphorylation, we used phospho-specific antibodies to determine if CT-1 directly influenced the activity of these regulatory proteins.
We then determined the effect of pharmacologic inhibitors on the activation of this signaling cascade.

cardiac fibroblasts [4] = experiment: Western analysis of signaling pathways activated by CT-1 in cardiac fibroblasts; settings: cardiac fibroblasts incubated with CT-1
Procedure: Fibroblasts were isolated from the hearts of 200-250 g adult male Sprague-Dawley rats as previously described (Hao et al., 2000, Am J Physiol Heart Circ Physiol 279: H3020-H3030). Briefly, hearts were subjected to Langendorff perfusion at 37° C. with Joklik's medium containing 0.1% collagenase (Worthington Biochemical Corporation, Lakewood, N.J.) for 20-25 minutes. Collagenase was neutralized by addition of an equal volume of DMEM/F12 medium containing 10% FBS and liberated cells were collected by centrifugation at 500×g for 5 minutes. Cells were resuspended in fresh DMEM/F12 containing 10% FBS and plated on 75 cm^2 culture flasks at 37° C. with 5% CO2 for 3 hours. Non adherent cells (myocytes) were removed by changing the culture media and adherent cells (mainly fibroblasts) were incubated in DMEM/F12 containing 10% FBS, 100 U/mL penicillin, 100 μg/mL streptomycin, and 100 μM ascorbate. Fibroblasts were used for experiments after the second passage and the purity of these cells was ≧95%, using routine phenotyping methods as previously described (Peterson et al., 1999, Cardiovasc Res 41: 575-585). […] Cells were rendered quiescent by incubation in serum-free medium for 24 hours then stimulated with CT-1 for specified times and lysed in RIPA buffer (150 mM NaCl, 1% Triton X-100, 0.5% deoxycholate, 0.1% SDS, 50 mM Tris) with 1× protease inhibitor cocktail (Sigma-Aldrich, Oakville, Ontario) and 10 mM NaF, 1 mM Na3VO4 and 1 mM EGTA.
as §1, with “Proteins were visualized with ECL Plus (Amersham) after probing with primary and secondary antibodies.” left out, “Ontario). […]” for “Ontario).”

B1: cardiotrophin-1 (protein, UniProt Q16619 1-201, looked up)
Cardiotrophin-1: MSRREGSLEDPQTDSSVSLLPHLEAKIRQTHSLAHLLTKYAEQLLQEYVQLQGDPFGLPSFSPPRLPVAGLSAPAPSHAGLPVHERLRLDAAALAALPPLLDAVCRRQAELNPRAPRLLRRLEDAARQARALGAAVEALLAALGAANRGPRAEPPAATASAASATGVFPAKVLGLRVCGLYREWLSRTEGDLGQLLPGGSA
notes: gp130 signaling cytokine of the LIF or IL-6 superfamily; 201 amino acids as a mature protein, 21.5 kDa
phosphorylation of myosin light chain at threonine 18/serine 19 (cardiac fibroblasts [1]): induced phosphorylation
protein synthesis (3H-leucine incorporation) (cardiac fibroblasts [2]): dose-dependent increase in protein synthesis
cell membrane potential (DiBAC4(3) fluorescence) (cardiac myofibroblasts): pronounced hyperpolarization
phosphorylation of Akt T308/S473, p70 S6 kinase T389 and S421/T424, Mnk1, eIF4E, 4E-BP1 and S6 ribosomal protein (cardiac fibroblasts [3]): induced an increase in phosphorylation
phosphorylation of gp130, Jak1, Jak2, STAT3, STAT1 (cardiac fibroblasts [4]): resulted in phosphorylation
phosphorylation of p42/44 MAPK, p38 MAPK, JNK and Src (cardiac fibroblasts [4]): observed phosphorylation
Phosphorylation of STAT5 or STAT6 (cardiac fibroblasts [4]; data not shown): not observed
